From patent US20130004490A1 (UNITED STATES OF AMERICA AS REPRESENTED BY THE SECRETARY …, published 2013) come the findings set out here.

The experiment addresses T1, mouse ICAM-1 expressed on activated mouse endothelial cells (mouse, UniProt P13597 28-537).
T1 construct: whole, on cells
Put plainly: FITC-labeled γ3 carriers on activated endothelial cells, fluorescence microscopy, 1 h 37 C. On the procedure:
Binding of FITC-labeled γ3 carriers to activated HUVEC cells (bars) vs ICAM-1-negative 293 cells (dotted line) was quantified by fluorescence microscopy after 1 h incubation at 37° C., in the absence or presence of excess γ3, anti-ICAM, or γ3 scramble peptide. The γ3 carriers bound to native ICAM-1 expressed by both activated human and mouse endothelial cells, but not control 293 cells which are known to be voided of ICAM-1 expression (FIG. 5C).

T1 sequence (P13597 28-537): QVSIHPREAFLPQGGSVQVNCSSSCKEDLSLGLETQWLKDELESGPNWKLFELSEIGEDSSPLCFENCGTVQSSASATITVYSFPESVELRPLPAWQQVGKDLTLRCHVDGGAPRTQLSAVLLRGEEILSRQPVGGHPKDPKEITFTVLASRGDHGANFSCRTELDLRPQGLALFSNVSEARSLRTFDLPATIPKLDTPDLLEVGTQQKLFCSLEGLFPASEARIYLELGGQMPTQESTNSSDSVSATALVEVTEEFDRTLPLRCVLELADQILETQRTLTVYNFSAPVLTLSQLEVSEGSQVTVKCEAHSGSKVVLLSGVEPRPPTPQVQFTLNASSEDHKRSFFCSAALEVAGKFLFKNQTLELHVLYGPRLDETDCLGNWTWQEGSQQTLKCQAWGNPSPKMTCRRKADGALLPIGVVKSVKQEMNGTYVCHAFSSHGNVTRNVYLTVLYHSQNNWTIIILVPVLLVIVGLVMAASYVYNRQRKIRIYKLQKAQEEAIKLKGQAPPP

B1: ICAM-1 affinity peptide γ3, a 17-mer polypeptide derived from fibrinogen (peptide)
peptide: NNQKIVNLKEKVAQLEA
notes: also called γ3 peptide; γ3 carriers
For B1, the binding result is “binds”.
